Measured values published in patent publication US20230407373A1 (priority 2020, published 2023).
Where two headings read alike, the source gives them in different places.

System: HCoV-OC43 gRNA and sgRNA
Format: binding
Conditions: for target (unweighted spectral count): OC43 Probe II, infected cells; for target (unweighted spectral count) / target (unweighted spectral count, OC43 Probe II capture): tested against no-probe control; for target (unweighted spectral count, OC43 Probe II capture): FDR<10%

Row | Molecule | target (unweighted spectral count) (12 hpi (type n_12_v)) | target (unweighted spectral count) (24 hpi (type n_24_v)) | target (unweighted spectral count, OC43 Probe II capture) (24 hpi, type n_24_v) | also measured
1 | HNANPA0 (protein, UniProt Q13151 1-305, looked up) Heterogeneous nuclear …: MENSQLCKLFIGGLNVQTSESGLRGHFEAFGTLTDCVVVVNPQTKRSRCFGFVTYSNVEEADAAMAASPHAVDGNTVELKRAVSREDSARPGAHAKVKKLFVGGLKGDVAEGDLIEHFSQFGTVEKAEIIADKQSGKKRGFGFVYFQNHDAADKAAVVKFHPIQGHRVEVKKAVPKEDIYSGGGGGGSRSSRGGRGGRGRGGGRDQNGLSKGGGGGYNSYGGYGGGGGGGYNAYGGGGGGSSYGGSDYGNGFGGFGSYSQHQSSYGPMKSGGGGGGGGSSWGGRSNSGPYRGGYGGGGGYGGSSF | 5 | 7 |  | 
2 | HMGB1 (protein, UniProt P09429 1-215, looked up) High mobility group protein B1: MGKGDPKKPRGKMSSYAFFVQTCREEHKKKHPDASVNFSEFSKKCSERWKTMSAKEKGKFEDMAKADKARYEREMKTYIPPKGETKKKFKDPNAPKRPPSAFFLFCSEYRPKIKGEHPGLSIGDVAKKLGEMWNNTAADDKQPYEKKAAKLKEKYEKDIAAYRAKGKPDAAKKGVVKAEKSKKKKEEEEDEEDEEDEEEEEDEEDEDEEEDDDDE | 7 | 6 |  | 
3 | DRX30 (protein, UniProt Q7L2E3 1-1194, looked up) ATP-dependent RNA helicase …: MFSLDSFRKDRAQHRQRQCKLPPPRLPPMCVNPTPGGTISRASRDLLKEFPQPKNLLNSVIGRALGISHAKDKLVYVHTNGPKKKKVTLHIKWPKSVEVEGYGSKKIDAERQAAAAACQLFKGWGLLGPRNELFDAAKYRVLADRFGSPADSWWRPEPTMPPTSWRQLNPESIRPGGPGGLSRSLGREEEEDEEEELEEGTIDVTDFLSMTQQDSHAPLRDSRGSSFEMTDDDSAIRALTQFPLPKNLLAKVIQIATSSSTAKNLMQFHTVGTKTKLSTLTLLWPCPMTFVAKGRRKAEAENKAAALACKKLKSLGLVDRNNEPLTHAMYNLASLRELGETQRRPCTIQVPEPILRKIETFLNHYPVESSWIAPELRLQSDDILPLGKDSGPLSDPITGKPYVPLLEAEEVRLSQSLLELWRRRGPVWQEAPQLPVDPHRDTILNAIEQHPVVVISGDTGCGKTTRIPQLLLERYVTEGRGARCNVIITQPRRISAVSVAQRVSHELGPSLRRNVGFQVRLESKPPSRGGALLFCTVGILLRKLQSNPSLEGVSHVIVDEVHERDVNTDFLLILLKGLQRLNPALRLVLMSATGDNERFSRYFGGCPVIKVPGFMYPVKEHYLEDILAKLGKHQYLHRHRHHESEDECALDLDLVTDLVLHIDARGEPGGILCFLPGWQEIKGVQQRLQEALGMHESKYLILPVHSNIPMMDQKAIFQQPPVGVRKIVLATNIAETSITINDIVHVVDSGLHKEERYDLKTKVSCLETVWVSRANVIQRRGRAGRCQSGFAYHLFPRSRLEKMVPFQVPEILRTPLENLVLQAKIHMPEKTAVEFLSKAVDSPNIKAVDEAVILLQEIGVLDQREYLTTLGQRLAHISTDPRLAKAIVLAAIFRCLHPLLVVVSCLTRDPFSSSLQNRAEVDKVKALLSHDSGSDHLAFVRAVAGWEEVLRWQDRSSRENYLEENLLYAPSLRFIHGLIKQFSENIYEAFLVGKPSDCTLASAQCNEYSEEEELVKGVLMAGLYPNLIQVRQGKVTRQGKFKPNSVTYRTKSGNILLHKSTINREATRLRSRWLTYFMAVKSNGSVFVRDSSQVHPLAVLLLTDGDVHIRDDGRRATISLSDSDLLRLEGDSRTVRLLKELRRALGRMVERSLRSELAALPPSVQEEHGQLLALLAELLRGPCGSFDVRKTADD |  | 10 |  | 
4 | MTDH (protein, UniProt Q86UE4 1-582, looked up) Protein LYRIC: MAARSWQDELAQQAEEGSARLREMLSVGLGFLRTELGLDLGLEPKRYPGWVILVGTGALGLLLLFLLGYGWAAACAGARKKRRSPPRKREEAAAVPAAAPDDLALLKNLRSEEQKKKNRKKLSEKPKPNGRTVEVAEGEAVRTPQSVTAKQPPEIDKKNEKSKKNKKKSKSDAKAVQNSSRHDGKEVDEGAWETKISHREKRQQRKRDKVLTDSGSLDSTIPGIENTITVTTEQLTTASFPVGSKKNKGDSHLNVQVSNFKSGKGDSTLQVSSGLNENLTVNGGGWNEKSVKLSSQISAGEEKWNSVSPASAGKRKTEPSAWSQDTGDANTNGKDWGRSWSDRSIFSGIGSTAEPVSQSTTSDYQWDVSRNQPYIDDEWSGLNGLSSADPNSDWNAPAEEWGNWVDEERASLLKSQEPIPDDQKVSDDDKEKGEGALPTGKSKKKKKKKKKQGEDNSTAQDTEELEKEIREDLPVNTSKTRPKQEKAFSLKTISTSDPAEVLVKNSQPIKTLPPATSTEPSVILSKSDSDKSSSQVPPILQETDKSKSNTKQNSVPPSQTKSETSWESPKQIKKKKKARRET |  |  | 5 | target (unweighted spectral count, OC43 Probe II capture) (36 hpi, type n_36_v): 6; target (unweighted spectral count, OC43 Probe II) (type n_48_v, 48 hpi, OC43 Probe II capture on infected cells): 6; background (unweighted spectral count, no-probe control) (type n_48_v, 48 hpi, no-probe control on infected cells): 1
5 | KRT9 (protein, UniProt P35527 1-623, looked up) Keratin, type I cytoskeletal 9: MSCRQFSSSYLSRSGGGGGGGLGSGGSIRSSYSRFSSSGGGGGGGRFSSSSGYGGGSSRVCGRGGGGSFGYSYGGGSGGGFSASSLGGGFGGGSRGFGGASGGGYSSSGGFGGGFGGGSGGGFGGGYGSGFGGFGGFGGGAGGGDGGILTANEKSTMQELNSRLASYLDKVQALEEANNDLENKIQDWYDKKGPAAIQKNYSPYYNTIDDLKDQIVDLTVGNNKTLLDIDNTRMTLDDFRIKFEMEQNLRQGVDADINGLRQVLDNLTMEKSDLEMQYETLQEELMALKKNHKEEMSQLTGQNSGDVNVEINVAPGKDLTKTLNDMRQEYEQLIAKNRKDIENQYETQITQIEHEVSSSGQEVQSSAKEVTQLRHGVQELEIELQSQLSKKAALEKSLEDTKNRYCGQLQMIQEQISNLEAQITDVRQEIECQNQEYSLLLSIKMRLEKEIETYHNLLEGGQEDFESSGAGKIGLGGRGGSGGSYGRGSRGGSGGSYGGGGSGGGYGGGSGSRGGSGGSYGGGSGSGGGSGGGYGGGSGGGHSGGSGGGHSGGSGGNYGGGSGSGGGSGGGYGGGSGSRGGSGGSHGGGSGFGGESGGSYGGGEEASGSGGGYGGGSGKSSHS |  | 53 |  | 
6 | HNANPA3 (protein, UniProt P51991 1-378, looked up) Heterogeneous nuclear …: MEVKPPPGRPQPDSGRRRRRRGEEGHDPKEPEQLRKLFIGGLSFETTDDSLREHFEKWGTLTDCVVMRDPQTKRSRGFGFVTYSCVEEVDAAMCARPHKVDGRVVEPKRAVSREDSVKPGAHLTVKKIFVGGIKEDTEEYNLRDYFEKYGKIETIEVMEDRQSGKKRGFAFVTFDDHDTVDKIVVQKYHTINGHNCEVKKALSKQEMQSAGSQRGRGGGSGNFMGRGGNFGGGGGNFGRGGNFGGRGGYGGGGGGSRGSYGGGDGGYNGFGGDGGNYGGGPGYSSRGGYGGGGPGYGNQGGGYGGGGGYDGYNEGGNFGGGNYGGGGNYNDFGNYSGQQQSNYGPMKGGSFGGRSSGSPYGGGYGSGGGSGGYGSRRF | 14 |  |  | 
7 | LMNA (protein, UniProt P02545 1-661, looked up) Prelamin-A/C: METPSQRRATRSGAQASSTPLSPTRITRLQEKEDLQELNDRLAVYIDRVRSLETENAGLRLRITESEEVVSREVSGIKAAYEAELGDARKTLDSVAKERARLQLELSKVREEFKELKARNTKKEGDLIAAQARLKDLEALLNSKEAALSTALSEKRTLEGELHDLRGQVAKLEAALGEAKKQLQDEMLRRVDAENRLQTMKEELDFQKNIYSEELRETKRRHETRLVEIDNGKQREFESRLADALQELRAQHEDQVEQYKKELEKTYSAKLDNARQSAERNSNLVGAAHEELQQSRIRIDSLSAQLSQLQKQLAAKEAKLRDLEDSLARERDTSRRLLAEKEREMAEMRARMQQQLDEYQELLDIKLALDMEIHAYRKLLEGEEERLRLSPSPTSQRSRGRASSHSSQTQGGGSVTKKRKLESTESRSSFSQHARTSGRVAVEEVDEEGKFVRLRNKSNEDQSMGNWQIKRQNGDDPLLTYRFPPKFTLKAGQVVTIWAAGAGATHSPPTDLVWKAQNTWGCGNSLRTALINSTGEEVAMRKLVRSVTVVEDDEDEDGDDLLHHHHGSHCSSSGDPAEYNLRSRTVLCGTCGQPADKASASGSGAQVGGPISSGSSASSVTVTRSYRSVGGSGGGSFGDNLVTRSYLLGNSSPRTQSPQNC | 7 | 8 |  | 
8 | KRT1 (protein, UniProt P04264 2-644, looked up) Keratin, type II cytoskeletal …: SRQFSSRSGYRSGGGFSSGSAGIINYQRRTTSSSTRRSGGGGGRFSSCGGGGGSFGAGGGFGSRSLVNLGGSKSISISVARGGGRGSGFGGGYGGGGFGGGGFGGGGFGGGGIGGGGFGGFGSGGGGFGGGGFGGGGYGGGYGPVCPPGGIQEVTINQSLLQPLNVEIDPEIQKVKSREREQIKSLNNQFASFIDKVRFLEQQNQVLQTKWELLQQVDTSTRTHNLEPYFESFINNLRRRVDQLKSDQSRLDSELKNMQDMVEDYRNKYEDEINKRTNAENEFVTIKKDVDGAYMTKVDLQAKLDNLQQEIDFLTALYQAELSQMQTQISETNVILSMDNNRSLDLDSIIAEVKAQYEDIAQKSKAEAESLYQSKYEELQITAGRHGDSVRNSKIEISELNRVIQRLRSEIDNVKKQISNLQQSISDAEQRGENALKDAKNKLNDLEDALQQAKEDLARLLRDYQELMNTKLALDLEIATYRTLLEGEESRMSGECAPNVSVSVSTSHTTISGGGSRGGGGGGYGSGGSSYGSGGGSYGSGGGGGGGRGSYGSGGSSYGSGGGSYGSGGGGGGHGSYGSGSSSGGYRGGSGGGGGGSSGGRGSGGGSSGGSIGGRGSSSGGVKSSGGSSSVKFVSTTYSGVTR |  |  | 49 | 
9 | KRT14 (protein, UniProt P02533 1-472, looked up) Keratin, type I cytoskeletal …: MTTCSRQFTSSSSMKGSCGIGGGIGGGSSRISSVLAGGSCRAPSTYGGGLSVSSSRFSSGGACGLGGGYGGGFSSSSSSFGSGFGGGYGGGLGAGLGGGFGGGFAGGDGLLVGSEKVTMQNLNDRLASYLDKVRALEEANADLEVKIRDWYQRQRPAEIKDYSPYFKTIEDLRNKILTATVDNANVLLQIDNARLAADDFRTKYETELNLRMSVEADINGLRRVLDELTLARADLEMQIESLKEELAYLKKNHEEEMNALRGQVGGDVNVEMDAAPGVDLSRILNEMRDQYEKMAEKNRKDAEEWFFTKTEELNREVATNSELVQSGKSEISELRRTMQNLEIELQSQLSMKASLENSLEETKGRYCMQLAQIQEMIGSVEEQLAQLRCEMEQQNQEYKILLDVKTRLEQEIATYRRLLEGEDAHLSSSQFSSGSQSSRDVTSSSRQIRTKVMDVHDGKVVSTHEQVLRTKN |  |  | 7 | 
